In the assay the target is peptide from Dynamin1 proline-rich domain. The assay is described as follows: not stated; monomeric GRAF1 SH3 domain with a peptide from the Dynamin1 proline-rich domain; method in Figure S2D or the supplement, not shown.

The values below come from paper PMC2726289.

For orientation: Kd means the equilibrium constant for the complex coming apart. High values mean lower affinity, low ones higher affinity.

B1: Monomeric GRAF1 SH3 domain (domain or fragment)
chain: TPFRKAKALYACKAEHDSELSFTAGTVFDNVHPSQEPGWLEGTLNGKTGLIPENYVEFL
Consider B1, for which the Kd was found to be 106 µM.
